This note sets out measurements from article PMC6720645, “Structural and Functional Properties of the Capsid Protein of Dengue and Related Flavivirus” (International Journal of Molecular Sciences, 2019).

The data set deals with the molecule itself. Briefly: time-resolved fluorescence anisotropy. In general terms: Polarisation of emitted light reports the rotation of a fluorescent probe.

B1: Dengue virus serotype 2 capsid protein (natural protein)
chain: MNNQRKKARNTPFNMLKRERNRVSTVQQLTKRFSLGMLQGRGPLKLFMALVAFLRFLTIPPTAGILKRWGTIKKSKAINVLRGFRKEIGRMLNILNRRRR
notes: also called DENV C; C protein
Turning to B1, the binding result is reported as “binds”.
